Columns and labels:
[1] = molecular target: RelA (p65) homodimer (UniProt Q04207 19-321); assay: stopped-flow fluorescence
[2] = molecular target: RelA (p65), subunit of RelA-p50 heterodimer;p50, subunit of RelA-p50 heterodimer (mouse (murine);mouse (murine), UniProt Q04207;P25799 19-321;39-350, |); assay: stopped-flow fluorescence
Sequence of RelA (p65), subunit of RelA-p50 heterodimer;p50, subunit of RelA-p50 heterodimer (Q04207 19-321, chain 1 of 2): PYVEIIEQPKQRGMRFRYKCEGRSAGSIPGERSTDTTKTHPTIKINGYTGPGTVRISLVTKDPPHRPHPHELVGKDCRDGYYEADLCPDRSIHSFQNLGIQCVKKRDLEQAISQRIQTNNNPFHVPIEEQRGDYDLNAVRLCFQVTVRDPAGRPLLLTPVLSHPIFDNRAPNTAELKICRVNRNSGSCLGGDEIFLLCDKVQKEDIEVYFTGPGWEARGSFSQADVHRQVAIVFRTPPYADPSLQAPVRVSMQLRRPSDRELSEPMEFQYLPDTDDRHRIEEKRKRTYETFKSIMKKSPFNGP
Sequence of RelA (p65), subunit of RelA-p50 heterodimer;p50, subunit of RelA-p50 heterodimer (P25799 39-350, chain 2 of 2): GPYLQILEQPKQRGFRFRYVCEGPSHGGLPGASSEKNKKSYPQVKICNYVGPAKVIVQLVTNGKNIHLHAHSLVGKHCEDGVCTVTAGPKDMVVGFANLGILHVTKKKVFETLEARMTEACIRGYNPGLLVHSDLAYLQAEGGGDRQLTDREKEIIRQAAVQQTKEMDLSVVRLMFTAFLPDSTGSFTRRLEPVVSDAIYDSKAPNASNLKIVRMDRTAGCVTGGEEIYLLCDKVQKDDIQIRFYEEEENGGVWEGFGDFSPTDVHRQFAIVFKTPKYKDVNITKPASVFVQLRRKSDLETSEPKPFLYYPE

Sequence of RelA (p65) homodimer (Q04207 19-321): as the sequence (Q04207 19-321, chain 1 of 2) above

Does GGGAAATTCCTCCCCCAGGAATTTCCC (structured_DNA, 5' AmMC6 amino linker) [IFN-kB hairpin] bind [1]?
Result: binds

Does GGGAAATTCCTCCCCCAGGAATTTCCC (structured_DNA, 5' AmMC6 amino linker) [IFN-kB hairpin] bind [2]?
Result: binds

Reference: publication PMC5951767
